From article PMC4359367, “DNA binding polarity, dimerization, and ATPase ring remodeling in the CMG helicase of the eukaryotic replisome” (eLife, 2014)

T1: Mcm2 (Drosophila melanogaster, UniProt P49735 1-887)
T1 construct: Mcm2, Drosophila melanogaster, subunit of Mcm2-7; source: Hi5 cells, co-infection with baculoviruses; purified as part of the CMG (anti-FLAG agarose, Mono S, Mono Q) and in whole cell lysate
T1 sequence (looked up): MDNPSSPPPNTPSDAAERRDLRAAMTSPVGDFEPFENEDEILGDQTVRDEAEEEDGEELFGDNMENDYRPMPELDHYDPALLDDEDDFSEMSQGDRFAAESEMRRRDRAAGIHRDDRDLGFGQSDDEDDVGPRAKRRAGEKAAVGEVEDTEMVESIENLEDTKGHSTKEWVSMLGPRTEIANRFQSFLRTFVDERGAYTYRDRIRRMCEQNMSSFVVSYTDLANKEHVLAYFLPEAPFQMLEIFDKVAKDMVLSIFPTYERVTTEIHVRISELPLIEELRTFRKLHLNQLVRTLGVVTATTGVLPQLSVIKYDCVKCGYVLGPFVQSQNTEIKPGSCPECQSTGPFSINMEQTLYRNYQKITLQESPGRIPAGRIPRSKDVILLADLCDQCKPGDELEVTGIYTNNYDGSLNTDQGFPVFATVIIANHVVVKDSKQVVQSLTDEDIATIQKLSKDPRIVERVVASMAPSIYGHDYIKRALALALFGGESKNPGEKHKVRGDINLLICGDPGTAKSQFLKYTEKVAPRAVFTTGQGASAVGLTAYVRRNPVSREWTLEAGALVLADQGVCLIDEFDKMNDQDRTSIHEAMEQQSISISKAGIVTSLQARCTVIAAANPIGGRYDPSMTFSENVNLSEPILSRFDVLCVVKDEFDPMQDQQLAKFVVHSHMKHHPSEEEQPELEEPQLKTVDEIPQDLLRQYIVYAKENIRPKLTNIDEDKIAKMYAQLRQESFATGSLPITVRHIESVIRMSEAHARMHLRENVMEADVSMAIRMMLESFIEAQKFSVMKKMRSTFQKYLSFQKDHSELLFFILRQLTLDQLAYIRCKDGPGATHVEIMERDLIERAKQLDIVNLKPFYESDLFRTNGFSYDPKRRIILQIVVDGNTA

T2: Mcm5 (Drosophila melanogaster, UniProt Q9VGW6 1-733)
T2 construct: Mcm5, Drosophila melanogaster, subunit of Mcm2-7; source: Hi5 cells, co-infection with baculoviruses; purified as part of the CMG (anti-FLAG agarose, Mono S, Mono Q) and in whole cell lysate
T2 sequence (looked up): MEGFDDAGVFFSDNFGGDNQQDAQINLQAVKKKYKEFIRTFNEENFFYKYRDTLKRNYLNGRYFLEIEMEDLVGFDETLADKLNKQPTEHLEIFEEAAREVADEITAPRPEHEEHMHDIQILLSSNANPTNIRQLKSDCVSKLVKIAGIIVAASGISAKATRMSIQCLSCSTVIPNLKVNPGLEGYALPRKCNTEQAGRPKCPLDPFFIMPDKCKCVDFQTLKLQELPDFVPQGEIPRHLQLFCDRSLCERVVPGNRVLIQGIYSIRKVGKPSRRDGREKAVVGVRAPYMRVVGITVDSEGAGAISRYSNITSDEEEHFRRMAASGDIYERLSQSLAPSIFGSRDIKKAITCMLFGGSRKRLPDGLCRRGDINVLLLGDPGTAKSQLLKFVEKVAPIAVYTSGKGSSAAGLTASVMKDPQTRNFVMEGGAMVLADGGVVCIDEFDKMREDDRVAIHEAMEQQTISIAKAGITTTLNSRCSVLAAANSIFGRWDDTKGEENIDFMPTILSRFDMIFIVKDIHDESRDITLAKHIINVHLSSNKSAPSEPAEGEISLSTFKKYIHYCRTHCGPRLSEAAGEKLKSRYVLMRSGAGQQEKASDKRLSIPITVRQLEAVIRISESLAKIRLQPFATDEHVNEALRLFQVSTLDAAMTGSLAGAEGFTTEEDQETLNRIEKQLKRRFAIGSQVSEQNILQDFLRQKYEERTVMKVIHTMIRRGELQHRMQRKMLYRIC

B1: Psf1 (natural protein, Drosophila melanogaster, UniProt Q9W0I7 1-202, looked up)
chain: MSRQTKMFGEKAFDLLKELERSSQTIPAFDDDGVRQVLEEIKAIFEENVAQASSYNASGDRSLWPLLNFRHAALQRNKRCLLAYLYERCRRIKALRWEFGPIIPGDIKQALCEPEVTFFNNYSKSLAAYMCSAGYNQGLPIDLTNNLRPPKSLYIEVRCMEDYGKFELDDGEVIHLKKNSQHYLPRAQVESLVRQGILHHIA
notes: Psf1, Drosophila melanogaster, subunit of GINS; the printed B-domain region 185-202 ends at the C-terminus; source: Hi5 cells, co-infection with baculoviruses; purified as part of the CMG (anti-FLAG agarose, Mono S, Mono Q) and in whole cell lysate
B2: Cdc45 (natural protein, Drosophila melanogaster, UniProt O96989 1-575, looked up)
chain: MFVQDLRNDFYRQLVGKRILIVVNYDIDAICASRILQALFKYDHMLYTVVPIMGVTGLKRAYGEHQGDVKYVVLVNCGGCVDIVELLQPSDDVTFFICDSHRPLDVCNIYSDRQVCILGDASLEENIPAFETIFYDSEGEDEDEDESSDTEQQHDDSGAGESDQEDQAPRSRKLSRLERHEQRILKQRARRQWESERDRIMFEYTQFSYYGRSAALMVFELAWKLSKDNMDLLWWAIVGITEQLLLGKIESGAYTLELEQIQSHVSRLTNKTNDQNTMSASKITFENDLHLVLYRHWPVTESMRYSRYSSCQLKLWTLRGEKRLHELLLEMGLPLVHARQTYGAMDLVLRKEFFSMVERLAEKYDIADIVYGTFTLSYGYRSRYAAADYVYALLAIMESVKKHKTPEDCFLEASDALSRQHKQLLSAGIDQAKLLHAAVFRQVQSSLEARQVHSAGSFFYYVLQEEHAFFSYPYALGLLARFLLRGHVATSRARQASDLPLIASCPLNASEGMCLLVGIVPVREDSPRNFFGKAFEQAAQKSGVALLQDFFEPAVVQLRQSDLTRFLDSLTVLLA
notes: Cdc45, Drosophila melanogaster; also called DmCdc45; source: Hi5 cells, co-infection with baculoviruses; purified as part of the CMG (anti-FLAG agarose, Mono S, Mono Q) and in whole cell lysate

Legend:
[1] = target: Cdc45/Mcm2-7/GINS (CMG) helicase (Drosophila melanogaster) (UniProt P49735); test: negative-stain EM, reference-free 2D class averages; purified CMG with 3'-tailed DNA and ATPγS; dimeric particles compared with 2D projections of double-hexamer models in six registers
Cdc45 = target: B2; test: negative-stain EM single-particle reconstruction; purified CMG mixed with a 20 bp duplex DNA bearing a 3' dT40 tail and 0.1 mM ATPγS, Superose 6 peak fraction, uranyl formate stain; 18 Å map; crystal structures and homology models docked; details: both partners purified
Mcm2 = target: T1, Mcm2; test: as above; details: both partners purified
Mcm5 = target: T2, Mcm5; test: as above; details: both partners purified

“Cdc45/Mcm2-7/GINS (CMG) helicase (from UniProt P49735 1-887; Q9XYU1 1-819; Q26454 1-866; Q9VGW6 1-733; Q9V461 1-817; Q9XYU0 1-720; Q9W0I7 1-202; Q9VQY9 1-203; Q9VBI1 1-228; O96989 1-575) (complex)” gave a percent of CMG particles in dimers [1] of 5% and a stoichiometry N [1] of 2.

B1: binds (Cdc45).

B2: binds (Mcm2); binds (Mcm5).
